{
  "source": "patent US20240392271",
  "about": "“ENGINEERED CASX REPRESSOR SYSTEMS” (Scribe Therapeutics Inc., published 2024)",
  "assay_in_all_cases": "cell_activity; PAM TTC; day 50",
  "key": {"ELXR2-ZIM3 (#2.A)": {"target": "T1, ELXR2-ZIM3 (#2.A) (synthetic construct)", "T1 chain": "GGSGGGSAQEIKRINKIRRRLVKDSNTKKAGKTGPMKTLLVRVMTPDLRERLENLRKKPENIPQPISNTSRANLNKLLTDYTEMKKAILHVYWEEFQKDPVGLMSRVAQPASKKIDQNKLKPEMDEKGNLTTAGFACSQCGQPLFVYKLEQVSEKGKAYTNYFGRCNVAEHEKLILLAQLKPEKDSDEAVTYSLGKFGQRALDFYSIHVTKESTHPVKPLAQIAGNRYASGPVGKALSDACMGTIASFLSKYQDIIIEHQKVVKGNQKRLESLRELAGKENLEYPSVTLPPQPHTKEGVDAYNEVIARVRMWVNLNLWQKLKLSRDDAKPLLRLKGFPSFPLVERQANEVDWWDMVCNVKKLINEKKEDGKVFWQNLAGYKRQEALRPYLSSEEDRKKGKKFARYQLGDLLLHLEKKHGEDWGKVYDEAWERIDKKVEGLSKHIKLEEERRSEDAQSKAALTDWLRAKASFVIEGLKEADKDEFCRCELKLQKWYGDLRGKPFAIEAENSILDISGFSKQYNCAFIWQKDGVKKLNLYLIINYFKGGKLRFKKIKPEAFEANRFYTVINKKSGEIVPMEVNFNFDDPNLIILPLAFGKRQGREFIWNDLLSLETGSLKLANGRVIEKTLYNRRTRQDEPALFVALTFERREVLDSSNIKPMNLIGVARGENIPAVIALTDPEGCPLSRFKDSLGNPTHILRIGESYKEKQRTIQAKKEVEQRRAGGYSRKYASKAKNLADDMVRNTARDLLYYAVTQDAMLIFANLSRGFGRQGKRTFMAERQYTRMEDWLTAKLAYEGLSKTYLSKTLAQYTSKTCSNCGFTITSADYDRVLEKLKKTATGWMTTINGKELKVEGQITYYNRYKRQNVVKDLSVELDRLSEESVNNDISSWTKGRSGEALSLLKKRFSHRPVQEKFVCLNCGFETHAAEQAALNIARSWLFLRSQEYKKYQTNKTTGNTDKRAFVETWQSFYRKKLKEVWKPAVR", "conditions": "tags: DNMT3A CD, DNMT3L ID, ZIM3 KRAB fusion, NLS"}, "ELXR3-ZIM3 (#3.A)": {"target": "T2, ELXR3-ZIM3 (#3.A) (synthetic construct)", "T2 chain": "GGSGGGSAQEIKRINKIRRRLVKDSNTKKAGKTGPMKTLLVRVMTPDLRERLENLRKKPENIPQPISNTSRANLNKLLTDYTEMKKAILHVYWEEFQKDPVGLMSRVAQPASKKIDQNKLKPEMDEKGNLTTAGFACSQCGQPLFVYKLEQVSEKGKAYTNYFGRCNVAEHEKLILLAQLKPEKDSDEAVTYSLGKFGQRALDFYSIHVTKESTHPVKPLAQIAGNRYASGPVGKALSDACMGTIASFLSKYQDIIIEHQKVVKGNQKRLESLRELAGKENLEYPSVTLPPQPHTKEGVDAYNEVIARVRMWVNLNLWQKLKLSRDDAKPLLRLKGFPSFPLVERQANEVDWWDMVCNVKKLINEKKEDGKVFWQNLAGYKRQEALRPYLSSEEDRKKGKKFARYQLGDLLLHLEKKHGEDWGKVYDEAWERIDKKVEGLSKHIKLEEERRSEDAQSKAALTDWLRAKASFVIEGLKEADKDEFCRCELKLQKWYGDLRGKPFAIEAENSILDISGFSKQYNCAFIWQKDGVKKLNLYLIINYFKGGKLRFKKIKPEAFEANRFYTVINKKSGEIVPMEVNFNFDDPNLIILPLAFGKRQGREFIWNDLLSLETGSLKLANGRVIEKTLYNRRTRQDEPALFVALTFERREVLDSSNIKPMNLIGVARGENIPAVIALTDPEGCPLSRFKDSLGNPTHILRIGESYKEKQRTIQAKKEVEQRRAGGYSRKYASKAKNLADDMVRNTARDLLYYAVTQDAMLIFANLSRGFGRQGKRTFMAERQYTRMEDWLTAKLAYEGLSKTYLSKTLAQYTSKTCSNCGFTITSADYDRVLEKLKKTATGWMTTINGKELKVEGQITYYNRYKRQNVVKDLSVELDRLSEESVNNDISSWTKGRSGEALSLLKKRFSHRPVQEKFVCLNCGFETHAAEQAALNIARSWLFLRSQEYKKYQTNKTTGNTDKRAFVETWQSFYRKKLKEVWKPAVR", "conditions": "tags: DNMT3A CD, DNMT3L ID, ZIM3 KRAB fusion, NLS"}, "ELXR1-ZNF10 (#1.B)": {"target": "T3, ELXR1-ZNF10 (#1.B) (synthetic construct)", "T3 chain": "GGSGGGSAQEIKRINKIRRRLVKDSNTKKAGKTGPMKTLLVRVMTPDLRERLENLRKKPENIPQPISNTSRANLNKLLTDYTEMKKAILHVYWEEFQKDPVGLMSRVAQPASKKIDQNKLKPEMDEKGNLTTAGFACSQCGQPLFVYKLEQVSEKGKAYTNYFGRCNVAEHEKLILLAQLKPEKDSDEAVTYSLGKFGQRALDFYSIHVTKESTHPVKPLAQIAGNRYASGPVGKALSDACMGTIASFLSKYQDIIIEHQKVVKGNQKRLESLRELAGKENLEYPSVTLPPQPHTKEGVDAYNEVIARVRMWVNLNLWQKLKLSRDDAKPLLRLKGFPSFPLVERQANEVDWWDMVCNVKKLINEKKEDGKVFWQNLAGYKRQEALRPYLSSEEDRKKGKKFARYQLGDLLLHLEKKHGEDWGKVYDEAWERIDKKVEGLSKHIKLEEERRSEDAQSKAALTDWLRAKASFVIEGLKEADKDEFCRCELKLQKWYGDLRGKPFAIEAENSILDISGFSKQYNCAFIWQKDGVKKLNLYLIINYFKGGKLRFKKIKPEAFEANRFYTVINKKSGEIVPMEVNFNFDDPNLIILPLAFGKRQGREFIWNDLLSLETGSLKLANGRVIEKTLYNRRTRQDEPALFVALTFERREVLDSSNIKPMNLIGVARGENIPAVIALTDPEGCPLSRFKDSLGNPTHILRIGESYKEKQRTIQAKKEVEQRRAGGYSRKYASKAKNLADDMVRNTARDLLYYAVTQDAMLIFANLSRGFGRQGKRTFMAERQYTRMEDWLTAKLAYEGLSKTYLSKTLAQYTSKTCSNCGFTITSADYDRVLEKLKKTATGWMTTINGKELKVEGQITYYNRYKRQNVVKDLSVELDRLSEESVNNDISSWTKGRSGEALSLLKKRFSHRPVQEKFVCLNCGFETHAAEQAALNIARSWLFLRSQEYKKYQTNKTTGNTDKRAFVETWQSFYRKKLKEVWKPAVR", "conditions": "tags: DNMT3A CD, DNMT3L ID, ZNF10 KRAB fusion, NLS"}, "ELXR1-ZIM3 (#1.A)": {"target": "T4, ELXR1-ZIM3 (#1.A) (synthetic construct)", "T4 chain": "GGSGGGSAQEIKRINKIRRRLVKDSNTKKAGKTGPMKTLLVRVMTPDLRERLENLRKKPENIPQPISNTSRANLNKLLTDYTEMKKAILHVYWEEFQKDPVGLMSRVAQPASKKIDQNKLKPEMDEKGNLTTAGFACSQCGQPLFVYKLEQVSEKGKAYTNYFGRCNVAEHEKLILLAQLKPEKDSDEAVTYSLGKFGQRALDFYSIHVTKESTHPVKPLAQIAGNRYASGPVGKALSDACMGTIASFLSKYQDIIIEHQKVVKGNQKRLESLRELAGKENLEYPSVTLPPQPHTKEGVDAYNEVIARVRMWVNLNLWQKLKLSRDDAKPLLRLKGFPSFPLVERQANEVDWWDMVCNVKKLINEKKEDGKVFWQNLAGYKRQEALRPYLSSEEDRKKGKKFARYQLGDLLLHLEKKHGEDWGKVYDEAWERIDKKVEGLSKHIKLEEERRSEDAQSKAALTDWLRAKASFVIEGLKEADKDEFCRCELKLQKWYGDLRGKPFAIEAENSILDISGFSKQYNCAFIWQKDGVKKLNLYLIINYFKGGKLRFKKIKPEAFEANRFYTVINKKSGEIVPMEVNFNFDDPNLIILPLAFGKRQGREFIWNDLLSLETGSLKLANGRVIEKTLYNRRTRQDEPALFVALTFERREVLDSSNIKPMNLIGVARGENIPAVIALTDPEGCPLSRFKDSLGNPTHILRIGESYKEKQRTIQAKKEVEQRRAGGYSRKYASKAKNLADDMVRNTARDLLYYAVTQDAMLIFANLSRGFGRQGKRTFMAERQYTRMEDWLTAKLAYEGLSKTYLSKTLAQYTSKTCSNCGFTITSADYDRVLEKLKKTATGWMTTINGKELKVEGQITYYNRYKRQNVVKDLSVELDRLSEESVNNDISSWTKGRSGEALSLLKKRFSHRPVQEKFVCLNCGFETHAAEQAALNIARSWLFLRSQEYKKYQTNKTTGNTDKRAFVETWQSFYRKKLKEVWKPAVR", "conditions": "tags: DNMT3A CD, DNMT3L ID, ZIM3 KRAB fusion, NLS"}, "ELXR3-ZNF10 (#3.B)": {"target": "T5, ELXR3-ZNF10 (#3.B) (synthetic construct)", "T5 chain": "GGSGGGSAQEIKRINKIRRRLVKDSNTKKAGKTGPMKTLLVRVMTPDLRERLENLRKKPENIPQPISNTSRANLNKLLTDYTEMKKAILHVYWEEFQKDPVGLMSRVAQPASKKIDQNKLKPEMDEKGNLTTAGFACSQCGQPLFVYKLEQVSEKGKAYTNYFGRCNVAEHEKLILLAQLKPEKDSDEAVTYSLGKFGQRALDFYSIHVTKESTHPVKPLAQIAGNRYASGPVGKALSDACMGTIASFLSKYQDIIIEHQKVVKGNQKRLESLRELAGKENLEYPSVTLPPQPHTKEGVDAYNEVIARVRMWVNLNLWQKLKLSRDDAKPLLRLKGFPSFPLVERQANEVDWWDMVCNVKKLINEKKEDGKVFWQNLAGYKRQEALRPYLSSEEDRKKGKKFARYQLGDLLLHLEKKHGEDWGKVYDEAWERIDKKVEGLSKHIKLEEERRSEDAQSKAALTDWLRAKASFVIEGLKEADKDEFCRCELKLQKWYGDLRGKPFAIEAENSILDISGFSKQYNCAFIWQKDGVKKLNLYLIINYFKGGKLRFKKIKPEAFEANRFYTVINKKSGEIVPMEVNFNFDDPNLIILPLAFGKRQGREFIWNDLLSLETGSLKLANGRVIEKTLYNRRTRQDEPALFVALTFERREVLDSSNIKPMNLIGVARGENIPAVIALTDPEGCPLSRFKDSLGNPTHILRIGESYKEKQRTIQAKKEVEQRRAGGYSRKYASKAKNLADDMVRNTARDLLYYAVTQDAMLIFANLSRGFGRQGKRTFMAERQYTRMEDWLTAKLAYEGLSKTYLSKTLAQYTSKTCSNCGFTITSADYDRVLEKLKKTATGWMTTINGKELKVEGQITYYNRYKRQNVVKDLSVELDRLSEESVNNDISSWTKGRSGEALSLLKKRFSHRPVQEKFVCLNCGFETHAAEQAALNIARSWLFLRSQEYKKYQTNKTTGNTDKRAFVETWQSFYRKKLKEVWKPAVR", "conditions": "tags: DNMT3A CD, DNMT3L ID, ZNF10 KRAB fusion, NLS"}},
  "data": [
    {"binder": "gRNA scaffold 174 + spacer 7.37 ; B2M target 7.37 (ssRNA ; dsDNA) RNA: ACUGGCGCUUUUAUCUGAUUACUUUGAGAGCCAUCACCAGCGACUAUGUCGUAGUGGGUAAAGCUCCCUCUUCGGAGGGAGCAUCAAAGGGCCGAGAUGUCUCGCUCCG DNA 1: GGCCGAGATGTCTCGCTCCG DNA 2: CGGAGCGAGACATCTCGGCC", "values": [
      {"measurement": "activity", "setting": "ELXR2-ZIM3 (#2.A)", "result": 58.8, "unit": "% HLA-negative cells"},
      {"measurement": "activity", "setting": "ELXR3-ZIM3 (#3.A)", "result": 17.5, "unit": "% HLA-negative cells"},
      {"measurement": "activity", "setting": "ELXR1-ZNF10 (#1.B)", "result": 70, "unit": "% HLA-negative cells"},
      {"measurement": "activity", "setting": "ELXR1-ZIM3 (#1.A)", "result": 73.7, "unit": "% HLA-negative cells"},
      {"measurement": "activity", "setting": "ELXR3-ZNF10 (#3.B)", "result": 17.1, "unit": "% HLA-negative cells"}
    ]}
  ]
}
